Numbering of substitutions follows the chain as printed.
Target: ΔN-HAB1 (HAB1 Δ1-178), recombinant (Arabidopsis) (UniProt Q9CAJ0)
Test: cell-based or functional assay

Chain of ΔN-HAB1 (HAB1 Δ1-178), recombinant (Arabidopsis) (Q9CAJ0 179-511, stated change not applied): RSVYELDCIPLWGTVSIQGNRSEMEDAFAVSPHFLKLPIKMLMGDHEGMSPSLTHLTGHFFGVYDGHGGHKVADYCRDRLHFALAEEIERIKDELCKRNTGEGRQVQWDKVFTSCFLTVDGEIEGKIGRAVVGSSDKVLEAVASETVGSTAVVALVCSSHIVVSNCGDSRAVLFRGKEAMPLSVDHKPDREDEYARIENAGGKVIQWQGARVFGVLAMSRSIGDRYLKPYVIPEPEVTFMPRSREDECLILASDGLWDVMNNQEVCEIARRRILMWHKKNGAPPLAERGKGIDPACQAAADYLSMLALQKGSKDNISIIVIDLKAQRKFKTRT

B1: 6xHis-PYR1^WIN, recombinant (designed binder, not shown: small tags and cut ends)
chain: MPSELTPEERSELKNSIAEFHTYQLDPGSCSSLHAQRIHAPPELVWSIVRRFDKPQTYQHFIKSCSVEQNFEMRVGCTRDVIVISGLPANTSTERLDILDDERRVTGFSIIGGEHRLTNYKSVTTVHRFEKENRIWTVVLESYVVDMPEGNSEDDTRMAIDTVVKLNLQKLATVAEAMARNSGDGSGSQVT
  EC50 for HAB1 inhibition (in vitro phosphatase activity, fluorogenic substrate; the ligand WIN 55,212-2 is titrated, 50 nM receptor, 25 nM ΔN-HAB1): 72 nM

B2: PYR1^DIAZI, recombinant (designed binder)
chain: B1 chain with E8G, Q59K, V81Y, L87M, F108Y, M158V, A159G, I160V
  EC50 of receptor-mediated inhibition of HAB1 phosphatase activity in vitro (ligand diazinon titrated): 36 nM

B3: PYR1^PIRI, recombinant (designed binder)
chain: B1 chain with Q59R, S92M, N119S, S122Q, E130G, A159T, I160T, V174A
  EC50 of receptor-mediated inhibition of HAB1 phosphatase activity in vitro (ligand pirimiphos-methyl titrated): 58 nM

B4: 6xHis-PYR1^4F, recombinant (designed binder, not shown: small tags and cut ends)
chain: B1 chain with Q59K, H115Q, Y120G, A159V, I160G
  EC50 for HAB1 inhibition (in vitro phosphatase activity, fluorogenic substrate; the ligand 4F-MDMB-BUTINACA is titrated, 25 nM receptor, 25 nM ΔN-HAB1): 102 nM
